target: human neonatal Fc-receptor (FcRn) (human) (UniProt P55899); test: FcRn affinity column chromatography
Sequence (P55899 24-297 limits assumed, chain 1 of 2): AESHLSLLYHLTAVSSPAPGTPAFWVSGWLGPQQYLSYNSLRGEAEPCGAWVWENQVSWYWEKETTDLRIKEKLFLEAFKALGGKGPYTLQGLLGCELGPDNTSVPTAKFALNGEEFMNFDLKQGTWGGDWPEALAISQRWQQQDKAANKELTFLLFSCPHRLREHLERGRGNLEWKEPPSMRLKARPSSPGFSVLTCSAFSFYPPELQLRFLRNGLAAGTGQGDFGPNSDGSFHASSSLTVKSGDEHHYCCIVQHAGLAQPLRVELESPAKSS
Sequence (P61769 21-119 limits assumed, chain 2 of 2, further chain): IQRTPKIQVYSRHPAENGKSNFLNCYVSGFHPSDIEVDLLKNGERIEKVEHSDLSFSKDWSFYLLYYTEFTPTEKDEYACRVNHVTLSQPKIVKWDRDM

Row | Substance | FcRn-affinity column retention time [min] | retention time [min]
1 | symmetrically engineered IgG1 Fc-region, L234A/L235A/P329G with Y436A (antibody) | 41.3 | –
2 | symmetrically modified anti-HER2 antibody, mutation D98E | – | 46.2
3 | symmetrically modified anti-HER2 antibody, mutation E258H | – | 45.6
4 | symmetrically modified anti-HER2 antibody, mutation E430H | – | 46.4
5 | symmetrically modified anti-HER2 antibody, mutation K288E | – | 45.2
6 | symmetrically modified anti-HER2 antibody, mutation K290H | – | 46.2
7 | symmetrically modified anti-HER2 antibody, mutation K317H | – | 46.3
8 | symmetrically modified anti-HER2 antibody, mutation L309H | – | 45.5
9 | symmetrically modified anti-HER2 antibody, mutation N434H | – | 52
10 | symmetrically modified anti-HER2 antibody, mutation Q311H | – | 46.3
11 | symmetrically modified anti-HER2 antibody, mutation R255D | – | 41.4
12 | symmetrically modified anti-HER2 antibody, mutation T256H | – | 46

target: human neonatal Fc-receptor (FcRn) (human) (UniProt P55899); test: FcRn affinity chromatography of the knobs-into-holes anti-VEGF/ANG2 antibody

Row | Substance | RT [min] (retention time on the FcRn affinity column)
13 | bispecific anti-VEGF/ANG2 antibody (knobs-into-holes), first chain with I253A/H310A/H435A and second chain with H310A (bispecific antibody) | 0
14 | bispecific anti-VEGF/ANG2 antibody (knobs-into-holes), first chain with I253A/H310A/H435A and second chain with H435A (bispecific antibody) | 0
15 | bispecific anti-VEGF/ANG2 antibody (knobs-into-holes), first chain with I253A/H310A/H435A and second chain with I253A/H310A/H435A (bispecific antibody) | 0
16 | bispecific anti-VEGF/ANG2 antibody (knobs-into-holes), no FcRn affecting mutation (bispecific antibody) | 52.8

Reference: patent publication US20160194389A1
